Experimental data taken from publication PMC6222199 (Journal of Bacteriology, 2018).

B1: RR_1586 (response regulator encoded by CDR20291_1586), wild type, unphosphorylated (natural protein, Clostridioides difficile R20291, UniProt A0A9R0BKD1 1-223, looked up)
chain: MKVLIVEDNKILLESVVEELSKHFETEKCEDGEEALYLVNQNIYDLVILDLMLPNINGFDILKKMRVNNIDTPVLILTAKETLDDKVEAFTIGANDYLTKPFYMEELVARVYAILRTNGKIKERNGLEFKSLYLDTLEKRVYIEKEEIKLQNKQFNLLEYFVLNKGSILLKEQIYDRIWGIDSDATIEIVEVYVSNLRKKLSKYGYDKYIKTKRKVGYIFDDK
notes: also called apo-RR_1586; wild-type RR_1586
B2: phosphorylated RR_1586 (wild type treated with phosphoramidate) (natural protein, Clostridioides difficile R20291, UniProt A0A9R0BKD1 1-223, looked up)
chain: B1 chain
notes: also called phospho-RR_1586

What was measured:
[1] = target: the molecule itself; assay: SEC-MALS; MiniDawn Treos MALS in line with a Superdex 200 Increase SEC column; without phosphoramidate
[2] = target: the molecule itself; assay: SEC-MALS; MiniDawn Treos MALS in line with a Superdex 200 Increase SEC column; with the phosphoryl donor phosphoramidate (50 uM protein with 50 mM phosphoramidate in 20 mM Tris pH 8, 50 mM NaCl, 10 mM MgCl2, 10 min, room temperature)

Row | Protein | stoichiometry N [1] | stoichiometry N [2]
1 | B1 | 2 | 
2 | B2 |  | 4
